Data on 1 substance can be found in paper PMC10728069.

Series [1] has as its target His-MoSPAB1ΔSP (Magnaporthe oryzae) (UniProt G4N0C3). Description: pull-down. The following applies: buffer not stated.
The test system of another series is GST-MYBS1 (rice). Kind of series: pull-down. The following applies: buffer not stated.

With Bsr-d1 promoter 1689 bp, in series [1], the binding signal (fold of bound MoSPAB1ΔSP) was determined as 1.11. For the same substance, in the series with GST-MYBS1 (rice), the binding signal (fold of bound GST-MYBS1) came to 0.65.
